Experimental data: FireProtDB (doi:10.1021/bi9707180)

B1: Guanyl-specific ribonuclease T1, P00651 (parent)
chain: MMYSKLLTLTTLLLPTALALPSLVERACDYTCGSNCYSSSDVSTAQAAGYQLHEDGETVGSNSYPHKYNNYEGFDFSVSSPYYEWPILSSGDVYSGGSPGADRVVFNENNQLAGVITHTGASGNNFVECT

Variants of: B1
Settings: Aspergillus oryzae (strain ATCC 42149 / RIB 40), 0 °C, Urea, CD, reversible: yes, structure 1RN1, whole UniProt chain shown

Variant | ddG of mutation (higher = less stable) (pH 2.5, glycine 30 mM) [kcal/mol] | denaturant m value (pH 2.5, glycine 30 mM) [kcal/mol/M] | denaturant midpoint (higher = more stable) (pH 2.5, glycine 30 mM) [M] | ddG of mutation (higher = less stable) (pH 7, MOPS 30 mM) [kcal/mol] | denaturant m value (pH 7, MOPS 30 mM) [kcal/mol/M] | denaturant midpoint (higher = more stable) (pH 7, MOPS 30 mM) [M]
MMYSKLLTLTTLLLPTALALPSLVERACDYTCGSNCYSSSDVSTAQIAGYQLHEDGETVGSNSYPHKYNNYEGFDFSVSSPYYEWPILSSGDVYSGGSPGADRVVFNENNQLAGVITHTGASGNNFVECT [A47I] | 0.44 | 1.57 | 2.51 |  |  | 
MMYSKLLTLTTLLLPTALALPSLVERACDYTCGSNCYSSSDVSTAQEAGYQLHEDGETVGSNSYPHKYNNYEGFDFSVSSPYYEWPILSSGDVYSGGSPGADRVVFNENNQLAGVITHTGASGNNFVECT [A47E] | -0.05 | 1.52 | 2.81 | 0.69 | 1.14 | 3.75
MMYSKLLTLTTLLLPTALALPSLVERACDYTCGSNCYSSSDVSTAQWAGYQLHEDGETVGSNSYPHKYNNYEGFDFSVSSPYYEWPILSSGDVYSGGSPGADRVVFNENNQLAGVITHTGASGNNFVECT [A47W] | 0.3 | 1.56 | 2.6 |  |  | 
MMYSKLLTLTTLLLPTALALPSLVERACDYTCGSNCYSSSDVSTAQLAGYQLHEDGETVGSNSYPHKYNNYEGFDFSVSSPYYEWPILSSGDVYSGGSPGADRVVFNENNQLAGVITHTGASGNNFVECT [A47L] | 0.13 | 1.64 | 2.7 |  |  | 
MMYSKLLTLTTLLLPTALALPSLVERACDYTCGSNCYSSSDVSTAQGAGYQLHEDGETVGSNSYPHKYNNYEGFDFSVSSPYYEWPILSSGDVYSGGSPGADRVVFNENNQLAGVITHTGASGNNFVECT [A47G] | 0.9 | 1.71 | 2.23 |  |  | 
MMYSKLLTLTTLLLPTALALPSLVERACDYTCGSNCYSSSDVSTAQTAGYQLHEDGETVGSNSYPHKYNNYEGFDFSVSSPYYEWPILSSGDVYSGGSPGADRVVFNENNQLAGVITHTGASGNNFVECT [A47T] | 0.57 | 1.6 | 2.43 |  |  | 
MMYSKLLTLTTLLLPTALALPSLVERACDYTCGSNCYSSSDVSTAQDAGYQLHEDGETVGSNSYPHKYNNYEGFDFSVSSPYYEWPILSSGDVYSGGSPGADRVVFNENNQLAGVITHTGASGNNFVECT [A47D] | -0.33 | 1.59 | 2.98 | 0.71 | 1.24 | 3.73
MMYSKLLTLTTLLLPTALALPSLVERACDYTCGSNCYSSSDVSTAQVAGYQLHEDGETVGSNSYPHKYNNYEGFDFSVSSPYYEWPILSSGDVYSGGSPGADRVVFNENNQLAGVITHTGASGNNFVECT [A47V] | 0.66 | 1.77 | 2.38 |  |  | 
MMYSKLLTLTTLLLPTALALPSLVERACDYTCGSNCYSSSDVSTAQMAGYQLHEDGETVGSNSYPHKYNNYEGFDFSVSSPYYEWPILSSGDVYSGGSPGADRVVFNENNQLAGVITHTGASGNNFVECT [A47M] | 0.15 | 1.6 | 2.69 |  |  | 
MMYSKLLTLTTLLLPTALALPSLVERACDYTCGSNCYSSSDVSTAQYAGYQLHEDGETVGSNSYPHKYNNYEGFDFSVSSPYYEWPILSSGDVYSGGSPGADRVVFNENNQLAGVITHTGASGNNFVECT [A47Y] | 0.39 | 1.69 | 2.54 |  |  | 
MMYSKLLTLTTLLLPTALALPSLVERACDYTCGSNCYSSSDVSTAQNAGYQLHEDGETVGSNSYPHKYNNYEGFDFSVSSPYYEWPILSSGDVYSGGSPGADRVVFNENNQLAGVITHTGASGNNFVECT [A47N] | -0.34 | 1.72 | 2.99 |  |  | 
MMYSKLLTLTTLLLPTALALPSLVERACDYTCGSNCYSSSDVSTAQHAGYQLHEDGETVGSNSYPHKYNNYEGFDFSVSSPYYEWPILSSGDVYSGGSPGADRVVFNENNQLAGVITHTGASGNNFVECT [A47H] | 0.56 | 1.79 | 2.44 | 0.17 | 1.27 | 4.18
MMYSKLLTLTTLLLPTALALPSLVERACDYTCGSNCYSSSDVSTAQKAGYQLHEDGETVGSNSYPHKYNNYEGFDFSVSSPYYEWPILSSGDVYSGGSPGADRVVFNENNQLAGVITHTGASGNNFVECT [A47K] | 0.51 | 1.7 | 2.47 |  |  | 
MMYSKLLTLTTLLLPTALALPSLVERACDYTCGSNCYSSSDVSTAQQAGYQLHEDGETVGSNSYPHKYNNYEGFDFSVSSPYYEWPILSSGDVYSGGSPGADRVVFNENNQLAGVITHTGASGNNFVECT [A47Q] |  |  |  | 0.4 | 1.12 | 3.99
MMYSKLLTLTTLLLPTALALPSLVERACDYTCGSNCYSSSDVSTAQFAGYQLHEDGETVGSNSYPHKYNNYEGFDFSVSSPYYEWPILSSGDVYSGGSPGADRVVFNENNQLAGVITHTGASGNNFVECT [A47F] | 0.57 | 1.69 | 2.43 |  |  | 
MMYSKLLTLTTLLLPTALALPSLVERACDYTCGSNCYSSSDVSTAQCAGYQLHEDGETVGSNSYPHKYNNYEGFDFSVSSPYYEWPILSSGDVYSGGSPGADRVVFNENNQLAGVITHTGASGNNFVECT [A47C] | 0.74 | 1.56 | 2.33 |  |  | 
MMYSKLLTLTTLLLPTALALPSLVERACDYTCGSNCYSSSDVSTAQRAGYQLHEDGETVGSNSYPHKYNNYEGFDFSVSSPYYEWPILSSGDVYSGGSPGADRVVFNENNQLAGVITHTGASGNNFVECT [A47R] | 0.41 | 1.65 | 2.53 |  |  | 
MMYSKLLTLTTLLLPTALALPSLVERACDYTCGSNCYSSSDVSTAQSAGYQLHEDGETVGSNSYPHKYNNYEGFDFSVSSPYYEWPILSSGDVYSGGSPGADRVVFNENNQLAGVITHTGASGNNFVECT [A47S] | 0.49 | 1.67 | 2.48 | 0.4 | 1.22 | 3.99
